From patent US11419921B2, “Methods of treating neurological disorders” (EnClear Therapies, Inc., priority 2018, dated 2022)

Test system: (GR)10
Test: Cleavage of (GR)10 by enzymes in solution (PBS with CaCl2 and MgCl2), LC/MS of GR repeats
Format: biochemical
Details: for (GR)1 concentration / (GR)2 concentration / (GR)3 concentration / (GR)4 concentration / (GR)5 concentration / (GR)6 concentration / (GR)8 concentration / (GR)10 concentration: (GR)10 50 μM; for (GR)1 / (GR)2 / (GR)3 / (GR)4 / (GR)5 / (GR)6 / (GR)8 / (GR)10: PBS, normalized
Protocol: • (GR)10 dipeptide (also (GR)8, (GR)6, (GR)4, (GR)2) were synthetized by solid-phase synthesis by CanPeptide; All peptides are uncapped and supplied lyophilized with TFA as counter ions. Purity was always above 95%. • Buffer: PBS buffer containing CaCl2 and MgCl2. • Stock solution of enzyme (e.g., 10 mg/mL) (prepared per manufacturer instructions) in PBS. Activators added as necessary. • Working solution of protein of the desired concentration (e.g., 100 μg/mL) prepared immediately before use by diluting the stock solution (e.g., 5 μL of 10 mg/mL stock solution) in PBS buffer (e.g., in 495 μL of PBS). Exemplary Procedure Using 50 μM Concentrations of (GR)10
25 μL of a 100 μM solution of (GR)10 was added to each well of a 96-well plate. 25 μL of a solution of enzyme (two times the desired final enzyme concentration) was added, and the plates were incubated at room temperature. At the specified time points (5 minutes, 10 minutes, 30 minutes, 60 minutes, and 180 minutes) 2.5 μL of a 10% TFA solution were added to stop the reaction. For the time 0 min well, the TFA was added to the well before addition of the enzyme. After last time point, all samples were further diluted with 150 μL of dilution solution. The quenched reaction mixtures were analyzed by LC/MS to determine the concentration of GR repeats of different lengths.
The chromatography and mass spectrometry conditions utilized are shown in Table 2 and Table 3, respectively.

(GR)1 concentration (enzyme 2.5 μg/mL, 0 min): BLQ | (GR)2 concentration (enzyme 2.5 μg/mL, 0 min): BLQ | (GR)3 concentration (enzyme 2.5 μg/mL, 0 min): BLQ | (GR)4 concentration (enzyme 2.5 μg/mL, 0 min): BLQ | (GR)5 concentration (enzyme 2.5 μg/mL, 0 min): BLQ | (GR)6 concentration (enzyme 2.5 μg/mL, 0 min): BLQ | (GR)8 concentration (enzyme 2.5 μg/mL, 0 min): 0.5 µM | (GR)10 concentration (enzyme 2.5 μg/mL, 0 min): 52.8 µM | (GR)1 concentration (enzyme 2.5 μg/mL, 5 min): 114.3 µM | (GR)2 concentration (enzyme 2.5 μg/mL, 5 min): 157.8 µM | (GR)3 concentration (enzyme 2.5 μg/mL, 5 min): 0.1 µM | (GR)4 concentration (enzyme 2.5 μg/mL, 5 min): BLQ | (GR)5 concentration (enzyme 2.5 μg/mL, 5 min): BLQ | (GR)6 concentration (enzyme 2.5 μg/mL, 5 min): BLQ | (GR)8 concentration (enzyme 2.5 μg/mL, 5 min): 0.1 µM | (GR)10 concentration (enzyme 2.5 μg/mL, 5 min): 2.2 µM | (GR)1 concentration (enzyme 2.5 μg/mL, 10 min): 124.7 µM | (GR)2 concentration (enzyme 2.5 μg/mL, 10 min): 167.7 µM | (GR)3 concentration (enzyme 2.5 μg/mL, 10 min): 0.1 µM | (GR)4 concentration (enzyme 2.5 μg/mL, 10 min): BLQ | (GR)5 concentration (enzyme 2.5 μg/mL, 10 min): BLQ | (GR)6 concentration (enzyme 2.5 μg/mL, 10 min): BLQ | (GR)8 concentration (enzyme 2.5 μg/mL, 10 min): BLQ | (GR)10 concentration (enzyme 2.5 μg/mL, 10 min): BLQ | (GR)1 concentration (enzyme 2.5 μg/mL, 30 min): 137.7 µM | (GR)2 concentration (enzyme 2.5 μg/mL, 30 min): 144.9 µM | (GR)3 concentration (enzyme 2.5 μg/mL, 30 min): BLQ | (GR)4 concentration (enzyme 2.5 μg/mL, 30 min): BLQ | (GR)5 concentration (enzyme 2.5 μg/mL, 30 min): BLQ | (GR)6 concentration (enzyme 2.5 μg/mL, 30 min): BLQ | (GR)8 concentration (enzyme 2.5 μg/mL, 30 min): BLQ | (GR)10 concentration (enzyme 2.5 μg/mL, 30 min): BLQ | (GR)1 concentration (enzyme 2.5 μg/mL, 60 min): 163.2 µM | (GR)2 concentration (enzyme 2.5 μg/mL, 60 min): 134.1 µM | (GR)3 concentration (enzyme 2.5 μg/mL, 60 min): BLQ | (GR)4 concentration (enzyme 2.5 μg/mL, 60 min): BLQ | (GR)5 concentration (enzyme 2.5 μg/mL, 60 min): BLQ | (GR)6 concentration (enzyme 2.5 μg/mL, 60 min): BLQ | (GR)8 concentration (enzyme 2.5 μg/mL, 60 min): BLQ | (GR)10 concentration (enzyme 2.5 μg/mL, 60 min): BLQ | (GR)1 concentration (enzyme 2.5 μg/mL, 120 min): 215.2 µM | (GR)2 concentration (enzyme 2.5 μg/mL, 120 min): 107.7 µM | (GR)3 concentration (enzyme 2.5 μg/mL, 120 min): BLQ | (GR)4 concentration (enzyme 2.5 μg/mL, 120 min): BLQ | (GR)5 concentration (enzyme 2.5 μg/mL, 120 min): BLQ | (GR)6 concentration (enzyme 2.5 μg/mL, 120 min): BLQ | (GR)8 concentration (enzyme 2.5 μg/mL, 120 min): BLQ | (GR)10 concentration (enzyme 2.5 μg/mL, 120 min): BLQ | (GR)1 concentration (enzyme 10 μg/mL, 0 min): 0.1 µM | (GR)2 concentration (enzyme 10 μg/mL, 0 min): BLQ | (GR)3 concentration (enzyme 10 μg/mL, 0 min): BLQ | (GR)4 concentration (enzyme 10 μg/mL, 0 min): BLQ | (GR)5 concentration (enzyme 10 μg/mL, 0 min): BLQ | (GR)6 concentration (enzyme 10 μg/mL, 0 min): BLQ | (GR)8 concentration (enzyme 10 μg/mL, 0 min): 0.5 µM | (GR)10 concentration (enzyme 10 μg/mL, 0 min): 48.9 µM | (GR)1 concentration (enzyme 10 μg/mL, 5 min): 124.4 µM | (GR)2 concentration (enzyme 10 μg/mL, 5 min): 138.9 µM | (GR)3 concentration (enzyme 10 μg/mL, 5 min): BLQ | (GR)4 concentration (enzyme 10 μg/mL, 5 min): BLQ | (GR)5 concentration (enzyme 10 μg/mL, 5 min): BLQ | (GR)6 concentration (enzyme 10 μg/mL, 5 min): BLQ | (GR)8 concentration (enzyme 10 μg/mL, 5 min): BLQ | (GR)10 concentration (enzyme 10 μg/mL, 5 min): 2.0 µM | (GR)1 concentration (enzyme 10 μg/mL, 10 min): 156.5 µM | (GR)2 concentration (enzyme 10 μg/mL, 10 min): 148.1 µM | (GR)3 concentration (enzyme 10 μg/mL, 10 min): BLQ | (GR)4 concentration (enzyme 10 μg/mL, 10 min): BLQ | (GR)5 concentration (enzyme 10 μg/mL, 10 min): BLQ | (GR)6 concentration (enzyme 10 μg/mL, 10 min): BLQ | (GR)8 concentration (enzyme 10 μg/mL, 10 min): BLQ | (GR)10 concentration (enzyme 10 μg/mL, 10 min): BLQ | (GR)1 concentration (enzyme 10 μg/mL, 30 min): 212.6 µM | (GR)2 concentration (enzyme 10 μg/mL, 30 min): 110.1 µM | (GR)3 concentration (enzyme 10 μg/mL, 30 min): BLQ | (GR)4 concentration (enzyme 10 μg/mL, 30 min): BLQ | (GR)5 concentration (enzyme 10 μg/mL, 30 min): BLQ | (GR)6 concentration (enzyme 10 μg/mL, 30 min): BLQ | (GR)8 concentration (enzyme 10 μg/mL, 30 min): BLQ | (GR)10 concentration (enzyme 10 μg/mL, 30 min): BLQ | (GR)1 concentration (enzyme 10 μg/mL, 60 min): 289.7 µM | (GR)2 concentration (enzyme 10 μg/mL, 60 min): 58.6 µM | (GR)3 concentration (enzyme 10 μg/mL, 60 min): BLQ | (GR)4 concentration (enzyme 10 μg/mL, 60 min): BLQ | (GR)5 concentration (enzyme 10 μg/mL, 60 min): BLQ | (GR)6 concentration (enzyme 10 μg/mL, 60 min): BLQ | (GR)8 concentration (enzyme 10 μg/mL, 60 min): BLQ | (GR)10 concentration (enzyme 10 μg/mL, 60 min): BLQ | (GR)1 concentration (enzyme 10 μg/mL, 120 min): 349.9 µM | (GR)2 concentration (enzyme 10 μg/mL, 120 min): 10.7 µM | (GR)3 concentration (enzyme 10 μg/mL, 120 min): BLQ | (GR)4 concentration (enzyme 10 μg/mL, 120 min): BLQ | (GR)5 concentration (enzyme 10 μg/mL, 120 min): BLQ | (GR)6 concentration (enzyme 10 μg/mL, 120 min): BLQ | (GR)8 concentration (enzyme 10 μg/mL, 120 min): BLQ | (GR)10 concentration (enzyme 10 μg/mL, 120 min): BLQ | (GR)1 (in solution - 5 min reaction): 178.0 µM | (GR)2 (in solution - 5 min reaction): 0.0 µM | (GR)3 (in solution - 5 min reaction): 0.0 µM | (GR)4 (in solution - 5 min reaction): 0.0 µM | (GR)5 (in solution - 5 min reaction): 0.0 µM | (GR)6 (in solution - 5 min reaction): 0.0 µM | (GR)8 (in solution - 5 min reaction): 0.0 µM | (GR)10 (in solution - 5 min reaction): 0.0 µM | (GR)1 (in solution - 60 min reaction): 321.4 µM | (GR)2 (in solution - 60 min reaction): 154.0 µM | (GR)3 (in solution - 60 min reaction): 0.0 µM | (GR)4 (in solution - 60 min reaction): 0.0 µM | (GR)5 (in solution - 60 min reaction): 0.0 µM | (GR)6 (in solution - 60 min reaction): 0.0 µM | (GR)8 (in solution - 60 min reaction): 0.0 µM | (GR)10 (in solution - 60 min reaction): 0.0 µM
B1: Trypsin: protease cleaving at the carboxyl side of lysine or arginine; in Table 21 also immobilized in-house on NHS-activated agarose resin (protein, UniProt P00760 24-246, looked up)
Serine protease 1: IVGGYTCGANTVPYQVSLNSGYHFCGGSLINSQWVVSAAHCYKSGIQVRLGEDNINVVEGNEQFISASKSIVHPSYNSNTLNNDIMLIKLKSAASLNSRVASISLPTSCASAGTQCLISGWGNTKSSGTSYPDVLKCLKAPILSDSSCKSAYPGQITSNMFCAGYLEGGKDSCQGDSGGPVVCSGKLQGIVSWGSGCAQKNKPGVYTKVCNYVSWIKQTIASN
